Assay results as given in article PMC5679657, “KSHV inhibits stress granule formation by viral ORF57 blocking PKR activation” (PLoS Pathogens, 2017).

Tests used:
[1] = target: T1, PKR ΔPK-Myc-Flag (aa 1-270) (UniProt P19525 1-270); assay: co-IP; HEK293 extract with Myc-Flag-tagged PKR FL, ΔPK or ΔRBM mixed with extract with untagged ORF57, RNase A/T1-digested; IP with anti-Flag for PKR; blot anti-ORF57; details: partners not purified
T1 construct: PKR (EIF2AK2) aa 1-270, kinase domain deleted; made from pPKR-FL; also called N-terminal RBM domain of PKR; source: HEK293, transfected, in lysate

[2] = target: T2, phosphorylated full-length PKR-Myc-Flag from arsenite-treated cells (UniProt P19525 1-551, phosphorylated; phospho-Thr 451 detected with anti-phosphorylated PKR (Thr 451)); assay: co-IP; extract of HEK293 cells with PKR-Myc-Flag, untreated or treated with arsenite for 30 min, mixed with HEK293 extract with ORF57-Flag, RNase A/T1-digested; pulled down with anti-Myc beads; blots anti-Flag, anti-pPKR (Thr 451), anti-ORF57; details: partners not purified
T2 construct: protein kinase R (PKR, EIF2AK2), full length, from pPKR-FL, phosphorylated in arsenite-treated cells; Other phosphorylated sites are not determined in this experiment; also called p-PKR; phosphorylated FL PKR; source: HEK293, transfected, treated with arsenite for 30 min, in lysate
T2 sequence (P19525 whole entry): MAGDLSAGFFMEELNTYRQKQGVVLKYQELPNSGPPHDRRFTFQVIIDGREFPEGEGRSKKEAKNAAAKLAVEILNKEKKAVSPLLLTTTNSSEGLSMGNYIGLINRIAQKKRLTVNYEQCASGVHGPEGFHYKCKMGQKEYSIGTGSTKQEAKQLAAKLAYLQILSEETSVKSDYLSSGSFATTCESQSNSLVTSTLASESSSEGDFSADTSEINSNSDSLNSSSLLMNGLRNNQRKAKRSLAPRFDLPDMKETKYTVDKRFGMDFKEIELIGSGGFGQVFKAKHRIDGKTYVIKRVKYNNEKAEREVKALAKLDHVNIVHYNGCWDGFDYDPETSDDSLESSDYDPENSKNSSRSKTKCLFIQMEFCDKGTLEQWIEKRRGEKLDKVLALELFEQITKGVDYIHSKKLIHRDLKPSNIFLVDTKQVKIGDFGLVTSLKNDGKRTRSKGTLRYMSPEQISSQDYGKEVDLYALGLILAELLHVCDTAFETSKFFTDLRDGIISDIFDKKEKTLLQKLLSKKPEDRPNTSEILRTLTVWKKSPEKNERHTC

T1 sequence (P19525 1-270, stated change not applied): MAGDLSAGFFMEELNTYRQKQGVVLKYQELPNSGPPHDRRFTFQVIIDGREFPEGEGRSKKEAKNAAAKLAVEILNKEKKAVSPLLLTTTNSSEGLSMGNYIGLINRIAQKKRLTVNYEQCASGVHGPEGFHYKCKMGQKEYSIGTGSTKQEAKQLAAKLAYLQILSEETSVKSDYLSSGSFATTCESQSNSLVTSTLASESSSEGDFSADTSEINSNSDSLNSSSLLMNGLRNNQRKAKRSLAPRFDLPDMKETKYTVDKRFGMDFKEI

Binder	fold binding relative to FL PKR [1] [fold]	fold binding relative to PKR from untreated cells [2] [times]
KSHV ORF57, untagged (pcDNA-ORF57) (natural protein, KSHV ORF57, untagged, expressed from pcDNA-ORF57; also called untagged ORF57; source: HEK293, transfected, in lysate) MVQAMIDMDIMKGILEDSVSSSEFDESRDDETDAPTLEDEQLSEPAEPPADERIRGTQSAQGIPPPLGRIPKKSQGRSQLRSEIQFCSPLSRPRSPSPVNRYGKKIKFGTAGQNTRPPPEKRPRRRPRDRLQYGRTTRGGQCRAAPKRATRRPQVNCQRQDDDVRQGVSDAVKKLRLPASMIIDGESPRFDDSIIPRHHGACFNVFIPAPPSHVPEVFTDRDITALIRAGGKDDELINKKISAKKIDHLHRQMLSFVTSRHNQAYWVSCRRETAAAGGLQTLGAFVEEQMTWAQTVVRHGGWFDEKDIDIILDTAIFVCNAFVTRFRLLHLSCVFDKQSELALIKQVAYLVAMGNRLVEACNLLGEVKLNFRGGLLLAFVLTIPGMQSRRSISARGQELFRTLLEYYRPGDVMGLLNVIVMEHHSLCRNSECAAATRAAMGSAKFNKGLFFYPLS	~6.5	–
KSHV ORF57-Flag (wild type, pVM7) (natural protein, KSHV ORF57 (mRNA transcript accumulation protein, MTA), wild type, expressed from pVM7; also called ORF57 wt; ORF57-wt-Flag; source: HEK293 or HeLa, transfected, in lysate) MVQAMIDMDIMKGILEDSVSSSEFDESRDDETDAPTLEDEQLSEPAEPPADERIRGTQSAQGIPPPLGRIPKKSQGRSQLRSEIQFCSPLSRPRSPSPVNRYGKKIKFGTAGQNTRPPPEKRPRRRPRDRLQYGRTTRGGQCRAAPKRATRRPQVNCQRQDDDVRQGVSDAVKKLRLPASMIIDGESPRFDDSIIPRHHGACFNVFIPAPPSHVPEVFTDRDITALIRAGGKDDELINKKISAKKIDHLHRQMLSFVTSRHNQAYWVSCRRETAAAGGLQTLGAFVEEQMTWAQTVVRHGGWFDEKDIDIILDTAIFVCNAFVTRFRLLHLSCVFDKQSELALIKQVAYLVAMGNRLVEACNLLGEVKLNFRGGLLLAFVLTIPGMQSRRSISARGQELFRTLLEYYRPGDVMGLLNVIVMEHHSLCRNSECAAATRAAMGSAKFNKGLFFYPLS	–	~3
